{
  "source": "paper PMC4538832",
  "about": "“Structures of the T. brucei kRNA editing factor MRB1590 reveal unique RNA-binding pore motif contained within an ABC-ATPase fold” (Nucleic Acids Research, 2015)",
  "target": "the molecule itself",
  "assay": "SEC; Superdex 200; 5 mg/ml protein; 20 mM Tris-HCl pH 7.5, 300 mM NaCl, 5% glycerol; elution volume compared with standard proteins",
  "data": [
    {"protein": "MRB1590(10–668) (domain or fragment, T. brucei, UniProt Q57ZF2 10-668, looked up, MRB1590, Trypanosoma brucei, residues 10-668 (N-terminal truncation of the full length protein); also called MRB1590–AMP–PNP complex; MRB1590-ADP, crystal form 2 (with poly-U); source: E. coli C41(DE3), purified (nickel-nitrilotriacetic acid column)) YRGGRGGGRGHSHWHNNAPMERGGHMPSNNEGAAISSGSTGFSPLMDFFHSVEGRNYGELRSLTNETYQISENVRCTFLSIQSDPFAPGSQVRLVCPCTFSLEKVLQTTDLAAANPCRRVAAEDFILRSFHAGYRNGIPRRTSGAVQVLRPSQHVLERSTVGLVKAHQQKSGMQAEIEIFARVKLPGHGRRIDGHGAIDIFYNELVPLLEQCVVGLNEEDLHQHVICVHDQEVLRSNLLGAGYVAFVANGAILPRDAGNSDKPLRDNAVPFQSPKSLECSFTLPHSGKTITGMGLPPGLTLIAGGGFHGKSTLLRALEVGIYNHVPDDGRTYVVVDPTAVKIRAEDRRSVHGVDISPFINNLPFGKTTNFFVTADASGSTSQAANIMEALELGSQLLLLDEDTCATNLMYRDALMQMLVPRAQEPITPFVERVADLSQNHGVSSIMVIGGSGQYFPQARVVLVMNAYQISDCTKEAKEIASNSSLPALNPPGDTASVFIPDVNRCFDPDGSFTTVRRRRGREGTKVSGIGTESIRFSEETIDLSMVEQIVEEGQVNAIAQCLALLYDGEPRIVPEMTTKGGALTQLPSPGGVCEIQRGKFNSNFSSMIAGCCSHQHDKRLELRTPSCYLPRGFTSATRHIEIGAALNRLRTLRTVTAKR", "values": [
      {"measurement": "stoichiometry N", "value": 2}
    ]}
  ]
}
